Reference: US20180311373A1

Target: HLA-A2 on HLA-A2 positive lymphocytes / PBMCs (human)
Test: cell-based or functional assay

G-Body inhibitory effect on proliferation of PBMCs; CD3/CD28 beads; HLA-A2 positive donor C; Day 7: 70%
G-Body inhibitory effect on proliferation of PBMCs; CD3/CD28 beads; HLA-A2 positive donor D; Day 7: 50%
G-Body inhibitory effect on proliferation of PBMCs; CD3/CD28 beads; HLA-A2 positive donor G; Day 3: 40%
G-Body inhibitory effect on proliferation of PBMCs; CD3/CD28 beads; HLA-A2 positive donor G; Day 7: 50%
G-Body inhibitory effect on proliferation of PBMCs; CD3/CD28 beads; HLA-A2 positive donor J; Day 3: 50%
G-Body inhibitory effect on proliferation of PBMCs; SEB; HLA-A2 positive donor C; Day 3: 60%
G-Body inhibitory effect on proliferation of PBMCs; SEB; HLA-A2 positive donor J; Day 3: 70%
G-Body inhibitory effect on proliferation of PBMCs; SEB; HLA-A2 positive donor J; Day 7: 70%
Substance: conjugate C (streptavidin-linked BB7.2 monoclonal antibody mixed with biotinylated HLA-G) (from UniProt P22629 37-163; P17693 25-299)
